Measurements reported in patent US20160264649A1.

Tests used:
Assay in all cases: cell-based or functional assay
[1] = target: HIV-1 Env of isolate MGRM-AE-008 (subtype AE) (HIV-1)
[2] = target: HIV-1 Env of isolate MGRM-D-024 (subtype D) (HIV-1)
[3] = target: HIV-1 Env of isolate MGRM-D-014 (subtype D) (HIV-1)
[4] = target: HIV-1 Env of isolate MGRM-F1-023 (subtype F) (HIV-1)
[5] = target: HIV-1 Env of isolate MGRM-F1-012 (subtype F) (HIV-1)
[6] = target: HIV-1 Env of isolate MGRM-AE-003 (subtype AE) (HIV-1)
[7] = target: HIV-1 Env of isolate MGRM-D-002 (subtype D) (HIV-1)
[8] = target: HIV-1 Env of isolate MGRM-F1-022 (subtype F) (HIV-1)
[9] = target: HIV-1 Env of isolate MGRM-AE-006 (subtype AE) (HIV-1)
[10] = target: HIV-1 Env of isolate MGRM-AE-005 (subtype AE) (HIV-1)
[11] = target: HIV-1 Env of isolate 92UG114 (subtype D) (HIV-1)
[12] = target: HIV-1 Env of isolate MGRM-F1-004 (subtype F) (HIV-1)
[13] = target: HIV-1 Env of isolate 93WR029 (subtype A) (HIV-1)
[14] = target: HIV-1 Env of isolate MGRM-D-021 (subtype D) (HIV-1)
[15] = target: HIV-1 Env of isolate MGRM-F1-008 (subtype F) (HIV-1)
[16] = target: HIV-1 Env of isolate MGRM-AE-002 (subtype AE) (HIV-1)
[17] = target: HIV-1 Env of isolate 92WR026 (subtype A) (HIV-1)
[18] = target: HIV-1 Env of isolate MGRM-D-008 (subtype D) (HIV-1)
[19] = target: HIV-1 Env of isolate MGRM-AE-004 (subtype AE) (HIV-1)
[20] = target: HIV-1 Env of isolate MGRM-F1-017 (subtype F) (HIV-1)
[21] = target: HIV-1 Env of isolate MGRM-F1-015 (subtype F) (HIV-1)
[22] = target: HIV-1 Env of isolate 93UG077 (subtype A) (HIV-1)
[23] = target: HIV-1 Env of isolate 92WR009 (subtype A) (HIV-1)
[24] = target: HIV-1 Env of isolate MGRM-D-011 (subtype D) (HIV-1)
[25] = target: HIV-1 Env of isolate MGRM-F1-016 (subtype F) (HIV-1)
[26] = target: HIV-1 Env of isolate MGRM-F1-020 (subtype F) (HIV-1)
[27] = target: HIV-1 Env of isolate CMU02 (subtype AE) (HIV-1)
[28] = target: HIV-1 Env of isolate 92WR020 (subtype A) (HIV-1)
[29] = target: HIV-1 Env of isolate 92TH021 (subtype AE) (HIV-1)
[30] = target: HIV-1 Env of isolate MGRM-F1-013 (subtype F) (HIV-1)
[31] = target: HIV-1 Env of isolate 94UG103 (subtype A) (HIV-1)
[32] = target: HIV-1 Env of isolate 92UG031 (subtype A) (HIV-1)
[33] = target: HIV-1 Env of isolate MGRM-D-001 (subtype D) (HIV-1)
[34] = target: HIV-1 Env of isolate MGRM-F1-018 (subtype F) (HIV-1)
[35] = target: HIV-1 Env of isolate MGRM-D-022 (subtype D) (HIV-1)
[36] = target: HIV-1 Env of isolate MGRM-D-029 (subtype D) (HIV-1)
[37] = target: HIV-1 Env of isolate MGRM-D-012 (subtype D) (HIV-1)
[38] = target: HIV-1 Env of isolate MGRM-D-026 (subtype D) (HIV-1)
[39] = target: HIV-1 Env of isolate MGRM-F1-010 (subtype F) (HIV-1)
[40] = target: HIV-1 Env of isolate MGRM-D-019 (subtype D) (HIV-1)
[41] = target: HIV-1 Env of isolate 92WR021 (subtype A) (HIV-1)
[42] = target: HIV-1 Env of isolate MGRM-D-013 (subtype D) (HIV-1)
[43] = target: HIV-1 Env of isolate MGRM-D-016 (subtype D) (HIV-1)
[44] = target: HIV-1 Env of isolate MGRM-D-018 (subtype D) (HIV-1)
[45] = target: HIV-1 Env of isolate MGRM-D-005 (subtype D) (HIV-1)
[46] = target: HIV-1 Env of isolate MGRM-D-003 (subtype D) (HIV-1)
[47] = target: HIV-1 Env of isolate MGRM-F1-014 (subtype F) (HIV-1)
[48] = target: HIV-1 Env of isolate MGRM-D-004 (subtype D) (HIV-1)
[49] = target: HIV-1 Env of isolate MGRM-F1-006 (subtype F) (HIV-1)
[50] = target: HIV-1 Env of isolate MGRM-AE-001 (subtype AE) (HIV-1)
[51] = target: HIV-1 Env of isolate MGRM-D-020 (subtype D) (HIV-1)
[52] = target: HIV-1 Env of isolate 92UG037 (subtype A) (HIV-1)
[53] = target: HIV-1 Env of isolate MGRM-D-028 (subtype D) (HIV-1)
[54] = target: HIV-1 Env of isolate 94 KE 105 (subtype AC) (HIV-1)
[55] = target: HIV-1 Env of isolate VLGCA1 (subtype A) (HIV-1)
[56] = target: HIV-1 Env of isolate MGRM-AE-007 (subtype AE) (HIV-1)
[57] = target: HIV-1 Env of isolate 92WR024 (subtype A) (HIV-1)
[58] = target: HIV-1 Env of isolate MGRM-F1-021 (subtype F) (HIV-1)

Chain of PGT-145 (4995_P16) (antibody) (VH): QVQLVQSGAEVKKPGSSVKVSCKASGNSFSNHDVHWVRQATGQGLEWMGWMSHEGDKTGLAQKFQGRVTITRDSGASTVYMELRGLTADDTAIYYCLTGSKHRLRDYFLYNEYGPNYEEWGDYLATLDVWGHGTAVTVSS
Chain of PGT-145 (4995_P16) (antibody) (VL): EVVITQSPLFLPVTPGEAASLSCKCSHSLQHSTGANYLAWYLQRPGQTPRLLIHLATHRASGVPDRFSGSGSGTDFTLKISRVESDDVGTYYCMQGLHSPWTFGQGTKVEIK

For PGT-145 (4995_P16) (antibody), which IC50 (pseudovirus neutralization) [1] is on record?
The IC50 (pseudovirus neutralization) was 1.46 mg/L.

And the IC50 (pseudovirus neutralization) [2]?
The IC50 (pseudovirus neutralization) was 0.224 mg/L.

What about the IC50 (pseudovirus neutralization) [3] of the same substance?
The IC50 (pseudovirus neutralization) was 2.51 mg/L.

And the IC50 (pseudovirus neutralization) [4]?
The IC50 (pseudovirus neutralization) was 5.88 mg/L.

And the IC50 (pseudovirus neutralization) [5]?
Its IC50 (pseudovirus neutralization) is 0.113 mg/L.

And the IC50 (pseudovirus neutralization) [6]?
Its IC50 (pseudovirus neutralization) is 0.552 mg/L.

What about the IC50 (pseudovirus neutralization) [7] of the same substance?
The IC50 (pseudovirus neutralization) was > 50 mg/L.

What about the IC50 (pseudovirus neutralization) [8] of the same substance?
The IC50 (pseudovirus neutralization) was 0.009 mg/L.

And the IC50 (pseudovirus neutralization) [9]?
Its IC50 (pseudovirus neutralization) is > 50 mg/L.

What about the IC50 (pseudovirus neutralization) [10] of the same substance?
Its IC50 (pseudovirus neutralization) is 0.967 mg/L.

And the IC50 (pseudovirus neutralization) [11]?
The IC50 (pseudovirus neutralization) was 20.1 mg/L.

What about the IC50 (pseudovirus neutralization) [12] of the same substance?
The IC50 (pseudovirus neutralization) was 0.361 mg/L.

And the IC50 (pseudovirus neutralization) [13]?
Its IC50 (pseudovirus neutralization) is > 50 mg/L.

What about the IC50 (pseudovirus neutralization) [14] of the same substance?
Its IC50 (pseudovirus neutralization) is > 50 mg/L.

And the IC50 (pseudovirus neutralization) [15]?
Its IC50 (pseudovirus neutralization) is 0.228 mg/L.

What about the IC50 (pseudovirus neutralization) [16] of the same substance?
Its IC50 (pseudovirus neutralization) is 1.87 mg/L.

What about the IC50 (pseudovirus neutralization) [17] of the same substance?
The IC50 (pseudovirus neutralization) was 1.45 mg/L.

And the IC50 (pseudovirus neutralization) [18]?
Its IC50 (pseudovirus neutralization) is 0.025 mg/L.

What about the IC50 (pseudovirus neutralization) [19] of the same substance?
Its IC50 (pseudovirus neutralization) is 0.006 mg/L.

And the IC50 (pseudovirus neutralization) [20]?
The IC50 (pseudovirus neutralization) was 0.286 mg/L.

And the IC50 (pseudovirus neutralization) [21]?
The IC50 (pseudovirus neutralization) was 1.76 mg/L.

And the IC50 (pseudovirus neutralization) [22]?
The IC50 (pseudovirus neutralization) was > 50 mg/L.

And the IC50 (pseudovirus neutralization) [23]?
Its IC50 (pseudovirus neutralization) is 0.026 mg/L.

What about the IC50 (pseudovirus neutralization) [24] of the same substance?
The IC50 (pseudovirus neutralization) was 14.7 mg/L.

And the IC50 (pseudovirus neutralization) [25]?
The IC50 (pseudovirus neutralization) was 17.5 mg/L.

What about the IC50 (pseudovirus neutralization) [26] of the same substance?
Its IC50 (pseudovirus neutralization) is 0.816 mg/L.

What about the IC50 (pseudovirus neutralization) [27] of the same substance?
Its IC50 (pseudovirus neutralization) is 1.43 mg/L.

What about the IC50 (pseudovirus neutralization) [28] of the same substance?
The IC50 (pseudovirus neutralization) was 0.997 mg/L.

And the IC50 (pseudovirus neutralization) [29]?
Its IC50 (pseudovirus neutralization) is 0.013 mg/L.

What about the IC50 (pseudovirus neutralization) [30] of the same substance?
Its IC50 (pseudovirus neutralization) is 0.402 mg/L.

What about the IC50 (pseudovirus neutralization) [31] of the same substance?
The IC50 (pseudovirus neutralization) was 0.331 mg/L.

And the IC50 (pseudovirus neutralization) [32]?
The IC50 (pseudovirus neutralization) was 3.22 mg/L.

What about the IC50 (pseudovirus neutralization) [33] of the same substance?
Its IC50 (pseudovirus neutralization) is 0.56 mg/L.

What about the IC50 (pseudovirus neutralization) [34] of the same substance?
Its IC50 (pseudovirus neutralization) is 1.02 mg/L.

What about the IC50 (pseudovirus neutralization) [35] of the same substance?
The IC50 (pseudovirus neutralization) was 34.3 mg/L.

And the IC50 (pseudovirus neutralization) [36]?
Its IC50 (pseudovirus neutralization) is 0.03 mg/L.

And the IC50 (pseudovirus neutralization) [37]?
Its IC50 (pseudovirus neutralization) is > 50 mg/L.

And the IC50 (pseudovirus neutralization) [38]?
The IC50 (pseudovirus neutralization) was 0.41 mg/L.

And the IC50 (pseudovirus neutralization) [39]?
The IC50 (pseudovirus neutralization) was 3.32 mg/L.

And the IC50 (pseudovirus neutralization) [40]?
The IC50 (pseudovirus neutralization) was 0.111 mg/L.

And the IC50 (pseudovirus neutralization) [41]?
Its IC50 (pseudovirus neutralization) is 1.62 mg/L.

And the IC50 (pseudovirus neutralization) [42]?
The IC50 (pseudovirus neutralization) was 3.48 mg/L.

What about the IC50 (pseudovirus neutralization) [43] of the same substance?
Its IC50 (pseudovirus neutralization) is > 50 mg/L.

What about the IC50 (pseudovirus neutralization) [44] of the same substance?
Its IC50 (pseudovirus neutralization) is 0.065 mg/L.

And the IC50 (pseudovirus neutralization) [45]?
Its IC50 (pseudovirus neutralization) is 10.4 mg/L.

What about the IC50 (pseudovirus neutralization) [46] of the same substance?
The IC50 (pseudovirus neutralization) was 0.006 mg/L.

What about the IC50 (pseudovirus neutralization) [47] of the same substance?
The IC50 (pseudovirus neutralization) was 0.009 mg/L.

What about the IC50 (pseudovirus neutralization) [48] of the same substance?
Its IC50 (pseudovirus neutralization) is 10.9 mg/L.

And the IC50 (pseudovirus neutralization) [49]?
Its IC50 (pseudovirus neutralization) is 13.6 mg/L.

And the IC50 (pseudovirus neutralization) [50]?
Its IC50 (pseudovirus neutralization) is 20.9 mg/L.

And the IC50 (pseudovirus neutralization) [51]?
Its IC50 (pseudovirus neutralization) is 10 mg/L.

What about the IC50 (pseudovirus neutralization) [52] of the same substance?
Its IC50 (pseudovirus neutralization) is 3.15 mg/L.

What about the IC50 (pseudovirus neutralization) [53] of the same substance?
The IC50 (pseudovirus neutralization) was 0.721 mg/L.

What about the IC50 (pseudovirus neutralization) [54] of the same substance?
The IC50 (pseudovirus neutralization) was 1.32 mg/L.

What about the IC50 (pseudovirus neutralization) [55] of the same substance?
Its IC50 (pseudovirus neutralization) is 8.01 mg/L.

And the IC50 (pseudovirus neutralization) [56]?
The IC50 (pseudovirus neutralization) was 0.181 mg/L.

And the IC50 (pseudovirus neutralization) [57]?
The IC50 (pseudovirus neutralization) was 0.069 mg/L.

What about the IC50 (pseudovirus neutralization) [58] of the same substance?
Its IC50 (pseudovirus neutralization) is 8.04 mg/L.
